Tested on: Escherichia coli TOP10
Assay: shrunken log2 fold change of peptide-encoding DNA abundance (4.5 h post-induction vs induction); higher = less antimicrobial activity (less host growth inhibition)
Details: time post-induction: 4.5 h; library: site-saturation at positions 5, 18, 19, 20
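Further: peptides expressed intracellularly from a pBAD plasmid library in pooled LB shake-flask culture, induced with 0.3% L-arabinose, DNA abundance read by NGS, three biological replicates, DESeq2 with apeglm shrinkage.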

Row | Sequence | shrunken log2 fold change
1 | RRIRDRPPRLPRPRPRPHMRPRP | 0.00207
2 | RRIRRRPPRLPRPRPRPCISPRP | -0.0399
3 | RRIRDRPPRLPRPRPRPWKYPRP | -0.331
4 | RRIRSRPPRLPRPRPRPLHQPRP | -0.248
5 | RRIRERPPRLPRPRPRPHHPPRP | -0.197
6 | RRIRKRPPRLPRPRPRPTQCPRP | 0.567
7 | RRIRDRPPRLPRPRPRPINTPRP | -0.115
8 | RRIRRRPPRLPRPRPRPLQPPRP | 0.873
9 | RRIRARPPRLPRPRPRPVLAPRP | 1.18
10 | RRIRKRPPRLPRPRPRPWIHPRP | -0.145
11 | RRIRPRPPRLPRPRPRPHDYPRP | -0.0318
12 | RRIRCRPPRLPRPRPRPCKYPRP | -0.227
13 | RRIRMRPPRLPRPRPRPEKHPRP | 0.921
14 | RRIRCRPPRLPRPRPRPAHAPRP | 0.373
15 | RRIRRRPPRLPRPRPRPHGPPRP | 0.267
16 | RRIRHRPPRLPRPRPRPCKSPRP | 0.0139
17 | RRIRKRPPRLPRPRPRPDMEPRP | 0.092
18 | RRIRKRPPRLPRPRPRPALVPRP | 0.623
19 | RRIRRRPPRLPRPRPRPMRQPRP | 0.202
20 | RRIRMRPPRLPRPRPRPHMDPRP | -0.604
21 | RRIRHRPPRLPRPRPRPREAPRP | -0.0215
22 | RRIRNRPPRLPRPRPRPRGVPRP | 0.195
23 | RRIRLRPPRLPRPRPRPISQPRP | -0.135
24 | RRIRNRPPRLPRPRPRPDDHPRP | -0.0202
25 | RRIRARPPRLPRPRPRPATYPRP | 0.0208

Row | Sequence | shrunken log2 fold change
26 | RRIRVRPPRLPRPRPRPSHNPRP | -0.692
27 | RRIRDRPPRLPRPRPRPYMMPRP | -0.297
28 | RRIRNRPPRLPRPRPRPPQYPRP | -0.0544
29 | RRIRERPPRLPRPRPRPWGWPRP | 0.173
30 | RRIRDRPPRLPRPRPRPSPGPRP | 0.241
31 | RRIRKRPPRLPRPRPRPNARPRP | 0.076
32 | RRIRWRPPRLPRPRPRPMHPPRP | 0.224
33 | RRIRLRPPRLPRPRPRPWNNPRP | -0.225
34 | RRIRVRPPRLPRPRPRPAGYPRP | -0.0144
35 | RRIRERPPRLPRPRPRPSKYPRP | -1.02
36 | RRIRIRPPRLPRPRPRPNHEPRP | 0.042
37 | RRIRLRPPRLPRPRPRPRDAPRP | 0.469
38 | RRIRHRPPRLPRPRPRPKWWPRP | 0.0178
39 | RRIRDRPPRLPRPRPRPRRCPRP | 0.142
40 | RRIRIRPPRLPRPRPRPQGGPRP | 0.102
41 | RRIRKRPPRLPRPRPRPQVAPRP | -0.0663
42 | RRIRIRPPRLPRPRPRPCLQPRP | -0.0932
43 | RRIRHRPPRLPRPRPRPTHMPRP | -0.065
44 | RRIRLRPPRLPRPRPRPETAPRP | 0.325
45 | RRIRMRPPRLPRPRPRPKGIPRP | 0.0647
46 | RRIRVRPPRLPRPRPRPWHRPRP | -0.145
47 | RRIRNRPPRLPRPRPRPVTMPRP | -0.514
48 | RRIRNRPPRLPRPRPRPNNQPRP | -0.703
49 | RRIRMRPPRLPRPRPRPIRLPRP | 0.0373
50 | RRIRMRPPRLPRPRPRPFWMPRP | 0.154

Row | Sequence | shrunken log2 fold change
51 | RRIRERPPRLPRPRPRPSESPRP | -0.577
52 | RRIRWRPPRLPRPRPRPGSGPRP | 0.497
53 | RRIRWRPPRLPRPRPRPAMMPRP | 0.306
54 | RRIRQRPPRLPRPRPRPCLWPRP | -0.162
55 | RRIRNRPPRLPRPRPRPKVHPRP | 0.0346
56 | RRIRRRPPRLPRPRPRPGMWPRP | 0.59
57 | RRIRLRPPRLPRPRPRPLHVPRP | -0.173
58 | RRIRTRPPRLPRPRPRPCTAPRP | -0.0896
59 | RRIRKRPPRLPRPRPRPQTPPRP | 1.39
60 | RRIRFRPPRLPRPRPRPIDCPRP | -0.046
61 | RRIRFRPPRLPRPRPRPCTHPRP | -0.842
62 | RRIRLRPPRLPRPRPRPCCDPRP | -0.139
63 | RRIRNRPPRLPRPRPRPRDRPRP | -0.0372
64 | RRIRSRPPRLPRPRPRPEAKPRP | 0.401
65 | RRIRRRPPRLPRPRPRPMGLPRP | -0.0617
66 | RRIRERPPRLPRPRPRPVMDPRP | -0.0467
67 | RRIRGRPPRLPRPRPRPADVPRP | 0.508
68 | RRIRMRPPRLPRPRPRPYRYPRP | -0.133
69 | RRIRHRPPRLPRPRPRPSIYPRP | -0.418
70 | RRIRPRPPRLPRPRPRPYTKPRP | -0.0218
71 | RRIRLRPPRLPRPRPRPTWMPRP | -0.0614
72 | RRIRSRPPRLPRPRPRPKGTPRP | -0.237
73 | RRIRLRPPRLPRPRPRPIPFPRP | -0.0242
74 | RRIRNRPPRLPRPRPRPGVPPRP | 0.457
75 | RRIRDRPPRLPRPRPRPTSAPRP | 0.418

Row | Sequence | shrunken log2 fold change
76 | RRIRLRPPRLPRPRPRPMCSPRP | 0.382
77 | RRIRCRPPRLPRPRPRPPALPRP | 0.415
78 | RRIRWRPPRLPRPRPRPQGAPRP | 0.988
79 | RRIRTRPPRLPRPRPRPQRWPRP | 0.137
80 | RRIRMRPPRLPRPRPRPPHQPRP | 0.634
81 | RRIRMRPPRLPRPRPRPVPHPRP | 0.537
82 | RRIRRRPPRLPRPRPRPWGNPRP | 0.352
83 | RRIRQRPPRLPRPRPRPICQPRP | -0.153
84 | RRIRYRPPRLPRPRPRPIPPPRP | -0.171
85 | RRIRERPPRLPRPRPRPDNWPRP | -0.103
86 | RRIRNRPPRLPRPRPRPWWLPRP | -0.106
87 | RRIRWRPPRLPRPRPRPIAGPRP | 0.0596
88 | RRIRARPPRLPRPRPRPWLAPRP | 0.162
89 | RRIRKRPPRLPRPRPRPTRQPRP | 0.724
90 | RRIRYRPPRLPRPRPRPRDRPRP | -0.116
91 | RRIRRRPPRLPRPRPRPSGNPRP | 0.122
92 | RRIRIRPPRLPRPRPRPIFCPRP | -0.0695
93 | RRIRFRPPRLPRPRPRPLGRPRP | 0.109
94 | RRIRDRPPRLPRPRPRPQMFPRP | -0.0311
95 | RRIRPRPPRLPRPRPRPFDWPRP | 0.171
96 | RRIRIRPPRLPRPRPRPTNQPRP | -0.28
97 | RRIRVRPPRLPRPRPRPVTPPRP | 0.214
98 | RRIRTRPPRLPRPRPRPSPWPRP | -0.114
99 | RRIRQRPPRLPRPRPRPDEMPRP | -0.0225
100 | RRIRERPPRLPRPRPRPCRAPRP | -0.0474

Row | Sequence | shrunken log2 fold change
101 | RRIRFRPPRLPRPRPRPLVFPRP | -0.204
102 | RRIRQRPPRLPRPRPRPKTRPRP | 0.247
103 | RRIRVRPPRLPRPRPRPVHYPRP | -0.0353
104 | RRIRCRPPRLPRPRPRPSNHPRP | -0.718
105 | RRIRRRPPRLPRPRPRPCYDPRP | -0.194
106 | RRIRVRPPRLPRPRPRPRHAPRP | 0.229
107 | RRIRARPPRLPRPRPRPEVLPRP | 0.709
108 | RRIRTRPPRLPRPRPRPSMRPRP | -0.107
109 | RRIRLRPPRLPRPRPRPFGSPRP | -0.0744
110 | RRIRPRPPRLPRPRPRPLWWPRP | 0.649
111 | RRIRRRPPRLPRPRPRPWQYPRP | 0.0419
112 | RRIRKRPPRLPRPRPRPEEIPRP | 0.00253
113 | RRIRNRPPRLPRPRPRPRFHPRP | 0.0377
114 | RRIRIRPPRLPRPRPRPKGEPRP | 0.00835
115 | RRIRLRPPRLPRPRPRPDWSPRP | -0.124
116 | RRIRCRPPRLPRPRPRPYLIPRP | -0.233
117 | RRIRYRPPRLPRPRPRPHKVPRP | -0.739
118 | RRIRVRPPRLPRPRPRPQTWPRP | -0.148
119 | RRIRVRPPRLPRPRPRPYSIPRP | 0.0569
120 | RRIRYRPPRLPRPRPRPTTWPRP | -0.358
121 | RRIRPRPPRLPRPRPRPECWPRP | 0.903
122 | RRIRKRPPRLPRPRPRPQCHPRP | 0.273
123 | RRIRERPPRLPRPRPRPEKHPRP | -0.13
124 | RRIRNRPPRLPRPRPRPVTEPRP | -0.0551
125 | RRIRKRPPRLPRPRPRPKAIPRP | 0.0275

Row | Sequence | shrunken log2 fold change
126 | RRIRRRPPRLPRPRPRPRHMPRP | -0.0552
127 | RRIRHRPPRLPRPRPRPWDAPRP | -0.101
128 | RRIRTRPPRLPRPRPRPDHKPRP | -0.117
129 | RRIRWRPPRLPRPRPRPGAWPRP | 0.373
130 | RRIRERPPRLPRPRPRPWILPRP | 0.0494
131 | RRIRQRPPRLPRPRPRPRYMPRP | -0.0938
132 | RRIRNRPPRLPRPRPRPALFPRP | 0.177
133 | RRIRFRPPRLPRPRPRPISLPRP | -0.452
134 | RRIRPRPPRLPRPRPRPQITPRP | -0.314
135 | RRIRDRPPRLPRPRPRPQGPPRP | 0.0365
136 | RRIRPRPPRLPRPRPRPWHSPRP | -0.134
137 | RRIRLRPPRLPRPRPRPECQPRP | -0.00577
138 | RRIRYRPPRLPRPRPRPMIDPRP | -0.00999
139 | RRIRQRPPRLPRPRPRPPGPPRP | 0.255
140 | RRIRNRPPRLPRPRPRPCAAPRP | 0.0594
141 | RRIRVRPPRLPRPRPRPTGDPRP | -0.0504
142 | RRIRLRPPRLPRPRPRPSTNPRP | -0.451
143 | RRIRYRPPRLPRPRPRPCVAPRP | -0.11
144 | RRIRLRPPRLPRPRPRPEAPPRP | 0.462
145 | RRIRERPPRLPRPRPRPSTWPRP | -0.651
146 | RRIRVRPPRLPRPRPRPLIMPRP | -0.502
147 | RRIRARPPRLPRPRPRPEPVPRP | 0.512
148 | RRIRVRPPRLPRPRPRPFAIPRP | -0.765
149 | RRIRGRPPRLPRPRPRPGWNPRP | 0.486
150 | RRIRGRPPRLPRPRPRPPWFPRP | 0.772

Reference: the supplement of paper PMC9112550, “Optimization of the antimicrobial peptide Bac7 by deep mutational scanning” (BMC Biology, 2022)
